Results published in publication PMC4067516 (Journal of cell science, 2008).

Biological target: β1 integrin (human (endogenous in EA.hy926), UniProt P05556 21-798)
Experiment: co-IP

β1 integrin, sequence (P05556 21-798): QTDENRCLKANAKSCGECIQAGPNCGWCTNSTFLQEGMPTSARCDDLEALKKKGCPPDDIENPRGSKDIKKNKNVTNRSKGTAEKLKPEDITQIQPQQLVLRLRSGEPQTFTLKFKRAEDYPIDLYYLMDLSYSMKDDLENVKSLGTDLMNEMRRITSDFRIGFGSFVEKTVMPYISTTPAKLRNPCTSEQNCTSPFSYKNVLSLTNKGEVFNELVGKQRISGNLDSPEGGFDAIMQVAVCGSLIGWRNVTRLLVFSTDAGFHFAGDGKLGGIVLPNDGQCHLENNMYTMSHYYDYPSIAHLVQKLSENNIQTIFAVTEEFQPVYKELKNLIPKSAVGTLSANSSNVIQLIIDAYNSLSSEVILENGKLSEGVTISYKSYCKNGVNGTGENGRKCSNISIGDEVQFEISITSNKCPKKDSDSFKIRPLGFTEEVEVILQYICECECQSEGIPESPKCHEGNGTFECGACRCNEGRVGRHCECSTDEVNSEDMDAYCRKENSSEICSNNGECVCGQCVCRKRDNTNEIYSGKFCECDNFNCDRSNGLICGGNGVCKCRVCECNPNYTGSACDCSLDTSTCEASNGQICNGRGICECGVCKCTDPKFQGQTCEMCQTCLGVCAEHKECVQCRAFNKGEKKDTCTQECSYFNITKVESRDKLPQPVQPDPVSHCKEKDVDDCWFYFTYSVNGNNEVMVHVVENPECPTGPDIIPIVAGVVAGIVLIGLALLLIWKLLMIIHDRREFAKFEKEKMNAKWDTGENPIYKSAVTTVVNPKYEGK

normalized CB1R ratio without versus with anandamide (2 mM Ca2+): 1.03 ± 0.04
B1: cannabinoid 1 receptor (receptor, human (endogenous in EA.hy926), UniProt P21554 1-472, looked up)
chain: MKSILDGLADTTFRTITTDLLYVGSNDIQYEDIKGDMASKLGYFPQKFPLTSFRGSPFQEKMTAGDNPQLVPADQVNITEFYNKSLSSFKENEENIQCGENFMDIECFMVLNPSQQLAIAVLSLTLGTFTVLENLLVLCVILHSRSLRCRPSYHFIGSLAVADLLGSVIFVYSFIDFHVFHRKDSRNVFLFKLGGVTASFTASVGSLFLTAIDRYISIHRPLAYKRIVTRPKAVVAFCLMWTIAIVIAVLPLLGWNCEKLQSVCSDIFPHIDETYLMFWIGVTSVLLLFIVYAYMYILWKAHSHAVRMIQRGTQKSIIIHTSEDGKVQVTRPDQARMDIRLAKTLVLILVVLIICWGPLLAIMVYDVFGKMNKLIKTVFAFCSMLCLLNSTVNPIIYALRSKDLRHAFRSMFPSCEGTAQPLDNSMGDSDCLHKHANNAASVHRAAESCIKSTVKIAKVTMSVSTDTSAEAL
